Values of other authors in paper PMC4364296.
Where “and” joins values, the source holds several entries; their conditions need not be identical. Identical values can stand only once. Like-named read-outs stand apart in the source and are kept apart here.

Experiments:
ZipA (Escherichia coli) [1] = target: ZipA (Escherichia coli) (UniProt P77173)
ZipA (Escherichia coli) [2] = target: ZipA (Escherichia coli) (UniProt P77173); remark: listed apart in the source

Sequence of FtsZ (P0A9A6 whole entry): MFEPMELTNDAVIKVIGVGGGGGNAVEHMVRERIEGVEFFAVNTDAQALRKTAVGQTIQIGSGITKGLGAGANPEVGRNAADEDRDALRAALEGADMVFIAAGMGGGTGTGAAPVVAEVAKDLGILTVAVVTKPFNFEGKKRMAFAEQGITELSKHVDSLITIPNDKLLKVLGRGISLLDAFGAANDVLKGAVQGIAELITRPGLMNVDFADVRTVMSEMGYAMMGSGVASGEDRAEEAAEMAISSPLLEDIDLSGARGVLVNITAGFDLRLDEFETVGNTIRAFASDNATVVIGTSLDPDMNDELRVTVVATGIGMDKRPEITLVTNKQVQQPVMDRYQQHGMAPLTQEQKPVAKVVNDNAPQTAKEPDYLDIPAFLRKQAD

Kd (ZipA (Escherichia coli) [2]) | Substance | Kd (ZipA (Escherichia coli) [1])
– | FtsZ (from UniProt P0A9A6) | 40 µM
35 µM and 21.6 µM | FtsZ CCTP peptide CCTP (from UniProt P0A9A6) | –
